Legend:
[1] = target: T1, CD99 endogenously expressed on cells (Jurkat, KOPT-K1) (human, UniProt P14209 23-185, O-linked glycosylation (natural, on cells)); assay: cell-based or functional assay
T1 sequence: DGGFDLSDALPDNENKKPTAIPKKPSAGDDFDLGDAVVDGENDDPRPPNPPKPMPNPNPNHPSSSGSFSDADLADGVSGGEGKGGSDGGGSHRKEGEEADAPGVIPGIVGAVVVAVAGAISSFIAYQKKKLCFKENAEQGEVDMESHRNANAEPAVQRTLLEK

[2] = target: T2, recombinant CD99 extracellular domain (fusion partner not given) (human, UniProt P14209 23-122); assay: Western blot of recombinant CD99
T2 construct: also called CD99 ECD; human CD99; not shown: N-terminal 6xHis tag, AviTag, TEV site and a fusion partner (SUMO or GFP)
T2 sequence: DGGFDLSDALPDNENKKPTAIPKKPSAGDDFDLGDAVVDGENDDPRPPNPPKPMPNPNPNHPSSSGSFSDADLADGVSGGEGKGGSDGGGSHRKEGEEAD

[3] = target: T3, CD99L2 extracellular domain (human, UniProt Q8TCZ2 26-185); assay: binding of scFv-Fc to immobilized homolog ECDs (FIG. 1B)
T3 construct: extracellular domain
T3 sequence (looked up): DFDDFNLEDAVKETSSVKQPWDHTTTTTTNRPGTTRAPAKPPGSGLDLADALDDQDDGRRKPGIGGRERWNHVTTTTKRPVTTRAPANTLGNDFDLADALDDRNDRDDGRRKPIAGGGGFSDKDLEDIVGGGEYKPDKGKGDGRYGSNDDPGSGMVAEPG

[4] = target: T4, Glycoprotein Xg extracellular domain (human, UniProt P55808 22-142); assay: as above
T4 construct: extracellular domain
T4 sequence (looked up): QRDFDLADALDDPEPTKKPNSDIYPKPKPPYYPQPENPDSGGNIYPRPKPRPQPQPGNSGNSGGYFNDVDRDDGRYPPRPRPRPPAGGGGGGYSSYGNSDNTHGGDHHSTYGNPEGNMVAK

[5] = target: T5, SAV-CD99 complex (biotinylated CD99 ECD tetramerized on streptavidin) (human, UniProt P22629 37-163 (Streptomyces avidinii entry), limits assumed, DyLight650 label; biotin on the AviTag); assay: yeast display binding signal (FIG. 5E)
T5 construct: also called tetramerized CD99; tetramerized SUMO-CD99; not shown: N-terminal 6xHis tag, AviTag, TEV site and fusion partner
T5 sequence (P22629 37-163 limits assumed, one chain of several): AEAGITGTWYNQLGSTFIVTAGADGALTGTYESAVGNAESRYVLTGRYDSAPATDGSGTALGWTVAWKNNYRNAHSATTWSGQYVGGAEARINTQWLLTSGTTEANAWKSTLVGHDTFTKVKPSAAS

B1: 10A1 IgG-RGY (antibody)
heavy: QVQLQQSGPVLVKPSQTLSLTCAISGDSISSDTTAWSWIRRSPSRGLEWLGWTYYRSKWFNYYAVSVKGRVTINPDTSKNQFSLQLSSVTPEDTAVYYCARGNGNGGMDVWGQGTTVTVSSASTKGPSVFPLAPSSKSTSGGTAALGCLVKDYFPEPVTVSWNSGALTSGVHTFPAVLQSSGLYSLSSVVTVPSSSLGTQTYICNVNHKPSNTKVDKKVEPKSCDKTHTCPPCPAPEAAGGPSVFLFPPKPKDTLMISRTPEVTCVVVDVSHEDPEVKFNWYVDGVEVHNAKTKPREEQYNSTYRVVSVLTVLHQDWLNGKEYKCKVSNKALGAPIEKTISKAKGQPRRPQVYTLPPSREEMTKNQVSLTCLVKGFYPSDIAVEWESNGQPENNYKTTPPVLDSDGSFFLYSKLTVDKSRWQQGNVFSCSVMHGALHNHYTQKYLSLSPGK
light: SYVLTQPASASVSPGQTARITCSGDALPKQYAYWYQQKPGQAPVLVIFKDSERPSGVPERFSGSSSGTTVTLTISGAQAEDEADYYCQSVDNSGFYQVFGGGTQLTVLRTVAAPSVFIFPPSDEQLKSGTASVVCLLNNFYPREAKVQWKVDNALQSGNSQESVTEQDSKDSTYSLSSTLTLSKADYEKHKVYACEVTHQGLSSPVTKSFNRGEC
[1]
  IC50 of cytotoxicity (Annexin V, KOPT-K1 cells, 18 hours): 442 nM Fv

B2: clone 10 in the scFv-Fc format (Fc fusion)
chain: QVQLQQSGPVLVKPSQTLSLTCAISGDSVSSDTTAWSWIRQSPSRGLEWLGWTYYRSKWFNYYAVSVKSRVTINPDTSKNQFSLQLSSVTPEDTAVYYCARGNGNGGMDVWGQGTTVTVSSGILGSGGGGSGGGGSGGGGSSYVLTQPPSVSVSPGQTARITCSGDALPKQYAYWYQQKPGQAPVLVIFKDSERPSGIPERFSGSSSGTTVTLTISGVQAEDEADYYCQSADNSGFYQVFGGGTQLTVLSGSSSSLEGCKPCICTVPEVSSVFIFPPKPKDVLTITLTPKVTCVVVDISKDDPEVQFSWFVDDVEVHTAQTQPREEQFNSTFRSVSELPIMHQDWLNGKEFKCRVNSAAFPAPIEKTISKTKGRPKAPQVYTIPPPKEQMAKDKVSLTCMITDFFPEDITVEWQWNGQPAENYKNTQPIMDTDGSYFVYSKLNVQKSNWEAGNTFTCSVLHEGLHNHHTEKSLSHSPGKGGGGLNDIFEAQKIEWHESRHHHHHH
notes: also called Clone 10 scFv-Fc antibody
[2]
  binding result: binds
[3]
  binding result: no binding (tested: 600 nM Fv)
[4]
  binding result: no binding (tested: 600 nM Fv)

B3: 10A1 with light chain D50 mutated to serine (yeast display format) (scFv, V domains shown)
VH: QVQLQQSGPVLVKPSQTLSLTCAISGDSISSDTTAWSWIRRSPSRGLEWLGWTYYRSKWFNYYAVSVKGRVTINPDTSKNQFSLQLSSVTPEDTAVYYCARGNGNGGMDVWGQGTTVTVSS
VL: SYVLTQPASASVSPGQTARITCSGDALPKQYAYWYQQKPGQAPVLVIFKSSERPSGVPERFSGSSSGTTVTLTISGAQAEDEADYYCQSVDNSGFYQVFGGGTQLTVL
notes: also called D50L to serine
[5]
  binding result: no binding (tested: 100 nM SAV-CD99 complex)

B4: 10A1 with light chain D91 mutated to serine (yeast display format) (scFv, V domains shown)
VH: QVQLQQSGPVLVKPSQTLSLTCAISGDSISSDTTAWSWIRRSPSRGLEWLGWTYYRSKWFNYYAVSVKGRVTINPDTSKNQFSLQLSSVTPEDTAVYYCARGNGNGGMDVWGQGTTVTVSS
VL: SYVLTQPASASVSPGQTARITCSGDALPKQYAYWYQQKPGQAPVLVIFKDSERPSGVPERFSGSSSGTTVTLTISGAQAEDEADYYCQSVSNSGFYQVFGGGTQLTVL
notes: also called D91L to serine
[5]
  binding result: no binding (tested: 100 nM SAV-CD99 complex)

From patent publication US20240190985A1 (NEW YORK UNIVERSITY, published 2024)
